Where two headings read alike, the source gives them in different places. *1 amine or outer side, *2 acyl side, *3 side chain or, on linkers, in order; H or OH if unused. Where no end group is shown, it is not given here. Side-chain parts run from the residue outwards. [ ]: non-standard residue; d: D form. The star is where a group is joined. γGlu = O=C(O)[C@H](CCC(=O)[*:2])N[*:1]; Palmitoyl = CCCCCCCCCCCCCCCC(=O)*; Aib = CC(C)(N)C(=O)O

The values that follow come from patent publication US20120238493A1 (INDIANA UNIVERSITY RESEARCH AND TECHNOLOGY, published 2012).

What all share (assay): cell-based or functional assay
Assay [1] has as its target T1, GIP receptor (UniProt P48546 22-466, limits assumed).
T1 sequence (looked up): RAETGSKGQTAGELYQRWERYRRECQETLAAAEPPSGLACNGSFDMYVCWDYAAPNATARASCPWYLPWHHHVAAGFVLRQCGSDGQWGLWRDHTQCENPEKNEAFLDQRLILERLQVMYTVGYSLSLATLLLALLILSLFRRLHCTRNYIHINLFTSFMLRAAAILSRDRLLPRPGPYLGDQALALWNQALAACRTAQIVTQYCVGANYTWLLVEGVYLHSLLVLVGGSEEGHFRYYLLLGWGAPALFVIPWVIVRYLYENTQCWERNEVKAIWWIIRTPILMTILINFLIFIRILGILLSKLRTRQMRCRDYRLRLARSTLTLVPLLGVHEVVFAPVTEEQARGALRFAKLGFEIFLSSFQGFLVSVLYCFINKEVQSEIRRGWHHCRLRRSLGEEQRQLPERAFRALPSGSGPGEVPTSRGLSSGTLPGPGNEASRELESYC

The target in assay [2] is T1, GIP receptor. This is another data set of the same source.
The target of assay [3] is T1, GIP receptor. The source holds these as a separate data set.
Assay [4] deals with T2, glucagon receptor (UniProt P47871 26-477, limits assumed).
T2 sequence (P47871 26-477 limits assumed): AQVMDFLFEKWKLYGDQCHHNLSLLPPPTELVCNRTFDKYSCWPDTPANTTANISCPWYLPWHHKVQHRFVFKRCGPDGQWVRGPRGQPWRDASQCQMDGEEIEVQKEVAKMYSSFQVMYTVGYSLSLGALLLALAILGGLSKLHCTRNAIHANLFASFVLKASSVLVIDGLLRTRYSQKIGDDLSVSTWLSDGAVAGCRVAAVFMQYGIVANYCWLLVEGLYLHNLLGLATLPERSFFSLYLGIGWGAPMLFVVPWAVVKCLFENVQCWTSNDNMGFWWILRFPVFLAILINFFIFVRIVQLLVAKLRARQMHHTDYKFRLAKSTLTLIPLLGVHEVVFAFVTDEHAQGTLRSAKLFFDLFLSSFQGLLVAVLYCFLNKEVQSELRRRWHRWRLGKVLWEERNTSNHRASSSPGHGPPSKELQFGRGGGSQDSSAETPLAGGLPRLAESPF
Assay [5] concerns the target T3, GLP-1 receptor (UniProt P43220 24-463, limits assumed).
Assay [6] has as its target T1, GIP receptor. This is another data set of the same source.
For assay [7], the target named is T2, glucagon receptor. This is another data set of the same source.
For assay [8], the target named is T3, GLP-1 receptor. This is another data set of the same source.
In assay [9] the target is T1, GIP receptor. The source holds these as a separate data set.
Assay [10] addresses T2, glucagon receptor. The source holds these as a separate data set.
Assay [11] has as its target T3, GLP-1 receptor. The source holds these as a separate data set.
Target sequence in this assay (P43220 24-463 limits assumed): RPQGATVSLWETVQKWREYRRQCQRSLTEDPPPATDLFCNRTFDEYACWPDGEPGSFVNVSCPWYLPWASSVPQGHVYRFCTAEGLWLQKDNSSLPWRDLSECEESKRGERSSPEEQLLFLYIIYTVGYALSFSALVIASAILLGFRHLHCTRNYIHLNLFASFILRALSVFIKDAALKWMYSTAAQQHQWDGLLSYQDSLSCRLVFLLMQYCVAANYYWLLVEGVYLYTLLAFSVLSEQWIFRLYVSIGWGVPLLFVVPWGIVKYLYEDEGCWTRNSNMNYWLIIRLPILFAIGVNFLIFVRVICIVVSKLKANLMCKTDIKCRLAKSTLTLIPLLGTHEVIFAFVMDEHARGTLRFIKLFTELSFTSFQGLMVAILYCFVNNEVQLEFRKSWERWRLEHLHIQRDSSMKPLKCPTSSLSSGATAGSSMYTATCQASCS
Assay [12] has as its target T1, GIP receptor. This is another data set of the same source.
The target in assay [13] is T2, glucagon receptor. This is another data set of the same source.
For assay [14], the target named is T3, GLP-1 receptor. This is another data set of the same source.
Assay [15] concerns the target T1, GIP receptor. This is another data set of the same source.
Assay [16] deals with T2, glucagon receptor. This is another data set of the same source.
Assay [17] has as its target T3, GLP-1 receptor. This is another data set of the same source.
Assay [18] addresses T1, GIP receptor. This is another data set of the same source.
The target in assay [19] is T2, glucagon receptor. This is another data set of the same source.
The target in assay [20] is T3, GLP-1 receptor. The source holds these as a separate data set.
The target in assay [21] is T1, GIP receptor. The source holds these as a separate data set.
In assay [22] the target is T2, glucagon receptor. The source holds these as a separate data set.
The target in assay [23] is T3, GLP-1 receptor. The source holds these as a separate data set.
Assay [24] has as its target T1, GIP receptor. This is another data set of the same source.
The target of assay [25] is T2, glucagon receptor. This is another data set of the same source.
In assay [26] the target is T3, GLP-1 receptor. This is another data set of the same source.

On to “Native GIP (SEQ ID NO: 2) (from UniProt P09681 52-93) (ligand)”, for which the EC50 (cAMP reporter) with GIP receptor [1] turned out to be 6.5 pM; in the assay with GIP receptor [2], 10 pM.

With H[Aib]QGTFTSDYSKYLD[Aib]RRAQDFVQWLMNT-NH2 (not fully specified (residue 12)) [Glucagon Aib2, K12(rErEC16), Aib16, amide (SEQ ID NO: 45)], the “EC50 (cAMP reporter)” value was 651 pM with GIP receptor [3], 42.5 pM with glucagon receptor [4] and 20.5 pM with GLP-1 receptor [5].

As for H[Aib]EGTFTSDYSKYLDERAAQDFVQWLLDGGPSSGAPPPSK([γGlu-γGlu-Palmitoyl])G-NH2 [peptide of SEQ ID NO: 171], the results for the “EC50 (cAMP reporter)” value in the assay with GIP receptor [6], in the assay with glucagon receptor [7] and in the assay with GLP-1 receptor [8] were 38 pM, 455 pM and 5 pM, respectively.

B1: peptide of SEQ ID NO: 230 (peptide)
peptide: H[Aib]QGTFTSDYSIYLDEKRAKEFVCWLLAGGPSSGAPPPSK-NH2
modifications: N-terminus assumed
SMILES: CC[C@H](C)[C@H](NC(=O)[C@H](CO)NC(=O)[C@H](Cc1ccc(O)cc1)NC(=O)[C@H](CC(=O)O)NC(=O)[C@H](CO)NC(=O)[C@@H](NC(=O)[C@H](Cc1ccccc1)NC(=O)[C@@H](NC(=O)CNC(=O)[C@H](CCC(N)=O)NC(=O)C(C)(C)NC(=O)[C@@H](N)Cc1c[nH]cn1)[C@@H](C)O)[C@@H](C)O)C(=O)N[C@@H](Cc1ccc(O)cc1)C(=O)N[C@@H](CC(C)C)C(=O)N[C@@H](CC(=O)O)C(=O)N[C@@H](CCC(=O)O)C(=O)N[C@@H](CCCCN)C(=O)N[C@@H](CCCNC(=N)N)C(=O)N[C@@H](C)C(=O)N[C@@H](CCCCN)C(=O)N[C@@H](CCC(=O)O)C(=O)N[C@@H](Cc1ccccc1)C(=O)N[C@H](C(=O)N[C@@H](CS)C(=O)N[C@@H](Cc1c[nH]c2ccccc12)C(=O)N[C@@H](CC(C)C)C(=O)N[C@@H](CC(C)C)C(=O)N[C@@H](C)C(=O)NCC(=O)NCC(=O)N1CCC[C@H]1C(=O)N[C@@H](CO)C(=O)N[C@@H](CO)C(=O)NCC(=O)N[C@@H](C)C(=O)N1CCC[C@H]1C(=O)N1CCC[C@H]1C(=O)N1CCC[C@H]1C(=O)N[C@@H](CO)C(=O)N[C@@H](CCCCN)C(N)=O)C(C)C
For B1, the results for the “EC50 (cAMP reporter)” value with GIP receptor [9], with glucagon receptor [10] and with GLP-1 receptor [11] were 164 pM, 1640 pM and 222 pM, respectively.

For the molecule H[Aib]QGTFTSKYSKYLD[Aib]RRAQDFVQWLMNT-NH2 (not fully specified (residue 9)) [Glucagon Aib2, K9(rErEC16), Aib16, amide (SEQ ID NO: 43)], the “EC50 (cAMP reporter)” value with GIP receptor [3] amounted to 15100 pM; with glucagon receptor [4], 1150 pM; with GLP-1 receptor [5] it was 232 pM.

As for H[Aib]QGTFTSDK([γGlu-Palmitoyl])SKYLDERAAQDFVQWLLDGGPSSGAPPPS-NH2 [Analog No. 30: Aib2, K10acyl, E16, A18, L27, D28, G29 + CEX (SEQ ID NO: 28)], the “EC50 (cAMP reporter)” value with GIP receptor [12] was determined as 3 pM; in the assay with glucagon receptor [13] it was 2 pM; in the assay with GLP-1 receptor [14], 2 pM; in the assay with GIP receptor [6] it was 2 pM; with glucagon receptor [7], 2 pM; in the assay with GLP-1 receptor [8], 2 pM. In addition, the “EC50 (cAMP reporter)” value in the assay with GIP receptor [15] is 4 pM; with glucagon receptor [16], 3 pM; in the assay with GLP-1 receptor [17], 4 pM; with GIP receptor [24], 3 pM; with glucagon receptor [25], 2 pM; with GLP-1 receptor [26], 2 pM. Also, the figures for the “EC50 (cAMP, nmole)” value with GIP receptor [18], in the assay with glucagon receptor [19] and with GLP-1 receptor [20] were 0.007 nmol, 0.004 nmol and 0.003 nmol, respectively. Also, the “activity (cAMP reporter), column GIP” value with GIP receptor [21] stood at 0.003. Moreover, the “activity (cAMP reporter), column Glu” value with glucagon receptor [22] amounted to 0.002. Moreover, in the assay with GLP-1 receptor [23], the “activity (cAMP reporter), column GLP” value came out at 0.002.

B2: Glucagon Aib2, Aib16, amide (SEQ ID NO: 42) (peptide)
peptide: H[Aib]QGTFTSDYSKYLD[Aib]RRAQDFVQWLMNT-NH2
modifications: N-terminus assumed
SMILES: CSCC[C@H](NC(=O)[C@H](CC(C)C)NC(=O)[C@H](Cc1c[nH]c2ccccc12)NC(=O)[C@H](CCC(N)=O)NC(=O)[C@@H](NC(=O)[C@H](Cc1ccccc1)NC(=O)[C@H](CC(=O)O)NC(=O)[C@H](CCC(N)=O)NC(=O)[C@H](C)NC(=O)[C@H](CCCNC(=N)N)NC(=O)[C@H](CCCNC(=N)N)NC(=O)C(C)(C)NC(=O)[C@H](CC(=O)O)NC(=O)[C@H](CC(C)C)NC(=O)[C@H](Cc1ccc(O)cc1)NC(=O)[C@H](CCCCN)NC(=O)[C@H](CO)NC(=O)[C@H](Cc1ccc(O)cc1)NC(=O)[C@H](CC(=O)O)NC(=O)[C@H](CO)NC(=O)[C@@H](NC(=O)[C@H](Cc1ccccc1)NC(=O)[C@@H](NC(=O)CNC(=O)[C@H](CCC(N)=O)NC(=O)C(C)(C)NC(=O)[C@@H](N)Cc1c[nH]cn1)[C@@H](C)O)[C@@H](C)O)C(C)C)C(=O)N[C@@H](CC(N)=O)C(=O)N[C@H](C(N)=O)[C@@H](C)O
As for B2, the “EC50 (cAMP reporter)” value in the assay with GIP receptor [3] came out at 104000 pM; in the assay with glucagon receptor [4], 309 pM; in the assay with GLP-1 receptor [5], 437 pM.

B3: Analog No. 63: Aib2, E3, K10acyl, E16, L27, D28, G29 + CEX (SEQ ID NO: 39) (peptide)
peptide: H[Aib]EGTFTSDK([γGlu-Palmitoyl])SKYLDERAAQDFVQWLLDGGPSSGAPPPS-NH2
modifications: N-terminus assumed
SMILES: CCCCCCCCCCCCCCCC(=O)N[C@@H](CCC(=O)NCCCC[C@H](NC(=O)[C@H](CC(=O)O)NC(=O)[C@H](CO)NC(=O)[C@@H](NC(=O)[C@H](Cc1ccccc1)NC(=O)[C@@H](NC(=O)CNC(=O)[C@H](CCC(=O)O)NC(=O)C(C)(C)NC(=O)[C@@H](N)Cc1c[nH]cn1)[C@@H](C)O)[C@@H](C)O)C(=O)N[C@@H](CO)C(=O)N[C@@H](CCCCN)C(=O)N[C@@H](Cc1ccc(O)cc1)C(=O)N[C@@H](CC(C)C)C(=O)N[C@@H](CC(=O)O)C(=O)N[C@@H](CCC(=O)O)C(=O)N[C@@H](CCCNC(=N)N)C(=O)N[C@@H](C)C(=O)N[C@@H](C)C(=O)N[C@@H](CCC(N)=O)C(=O)N[C@@H](CC(=O)O)C(=O)N[C@@H](Cc1ccccc1)C(=O)N[C@H](C(=O)N[C@@H](CCC(N)=O)C(=O)N[C@@H](Cc1c[nH]c2ccccc12)C(=O)N[C@@H](CC(C)C)C(=O)N[C@@H](CC(C)C)C(=O)N[C@@H](CC(=O)O)C(=O)NCC(=O)NCC(=O)N1CCC[C@H]1C(=O)N[C@@H](CO)C(=O)N[C@@H](CO)C(=O)NCC(=O)N[C@@H](C)C(=O)N1CCC[C@H]1C(=O)N1CCC[C@H]1C(=O)N1CCC[C@H]1C(=O)N[C@@H](CO)C(N)=O)C(C)C)C(=O)O
On to B3, for which the “activity (cAMP reporter), column GIP” value with GIP receptor [21] came to 0.026. Also, the “activity (cAMP reporter), column Glu” value in the assay with glucagon receptor [22] came to 1.28. Also, the “activity (cAMP reporter), column GLP” value with GLP-1 receptor [23] amounted to 0.008. Besides, the “EC50 (cAMP reporter)” value amounted to 26 pM in the assay with GIP receptor [24], 1280 pM with glucagon receptor [25] and 8 pM in the assay with GLP-1 receptor [26].

For H[Aib]QGTFTSDYSKYLDERAAQDFVQWLLDGGPSSGAPPPSK([γGlu-γGlu-Palmitoyl])G-NH2 (not fully specified) [peptide of SEQ ID NO: 89], the “EC50 (cAMP reporter)” value turned out to be 24 pM with GIP receptor [12]; 4.1 pM in the assay with glucagon receptor [13]; 2.1 pM with GLP-1 receptor [14]; 20 pM with GIP receptor [6]; 4 pM with glucagon receptor [7]; 4 pM with GLP-1 receptor [8]. The figures for the “EC50 (cAMP reporter)” value with GIP receptor [15], with glucagon receptor [16] and with GLP-1 receptor [17] were 28 pM, 6 pM and 5 pM, respectively.
